Test in all cases: AlphaScreen
On the technique in general: Bead proximity is the source of the signal in Alpha formats.

Experiment [1] has as its target human FcRn (human) (UniProt P55899).
Experiment [2] addresses human V158 FcγRIIIa, extracellular region fused with GST (human) (UniProt P08637).
For experiment [3], the target named is human FcγRI (human) (UniProt P12314).
In experiment [4] the target is human FcγRIIc (human) (UniProt P31995).
Experiment [5] deals with human FcγRIIb (human) (UniProt P31994).
The target in experiment [6] is human FcγRIIa H131 (human) (UniProt P12318).
Sequence of UniProt P12318 (P12318 36-218 limits assumed): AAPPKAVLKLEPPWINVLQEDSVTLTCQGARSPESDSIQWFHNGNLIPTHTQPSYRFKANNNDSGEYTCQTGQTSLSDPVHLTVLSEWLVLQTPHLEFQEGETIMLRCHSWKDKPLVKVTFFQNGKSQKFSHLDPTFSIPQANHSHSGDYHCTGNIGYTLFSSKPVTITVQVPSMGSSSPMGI

Sequence of UniProt P12314 (P12314 16-288 limits assumed): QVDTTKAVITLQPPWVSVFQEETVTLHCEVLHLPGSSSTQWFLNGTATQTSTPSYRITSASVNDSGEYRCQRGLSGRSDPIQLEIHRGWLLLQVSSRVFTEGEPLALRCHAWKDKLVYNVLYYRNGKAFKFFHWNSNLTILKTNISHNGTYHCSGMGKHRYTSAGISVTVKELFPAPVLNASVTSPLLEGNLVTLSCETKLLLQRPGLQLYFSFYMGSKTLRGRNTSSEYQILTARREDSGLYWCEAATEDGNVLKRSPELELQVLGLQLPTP
Sequence of UniProt P31994 (P31994 43-217 limits assumed): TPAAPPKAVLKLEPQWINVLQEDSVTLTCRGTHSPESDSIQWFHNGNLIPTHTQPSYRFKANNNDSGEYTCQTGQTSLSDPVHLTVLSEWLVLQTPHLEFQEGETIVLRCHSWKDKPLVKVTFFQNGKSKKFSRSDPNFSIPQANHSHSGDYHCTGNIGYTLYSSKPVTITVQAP
Sequence of UniProt P31995 (P31995 43-217 limits assumed): as the sequence (P31994 43-217 limits assumed) above
Sequence of UniProt P55899 (P55899 24-297 limits assumed): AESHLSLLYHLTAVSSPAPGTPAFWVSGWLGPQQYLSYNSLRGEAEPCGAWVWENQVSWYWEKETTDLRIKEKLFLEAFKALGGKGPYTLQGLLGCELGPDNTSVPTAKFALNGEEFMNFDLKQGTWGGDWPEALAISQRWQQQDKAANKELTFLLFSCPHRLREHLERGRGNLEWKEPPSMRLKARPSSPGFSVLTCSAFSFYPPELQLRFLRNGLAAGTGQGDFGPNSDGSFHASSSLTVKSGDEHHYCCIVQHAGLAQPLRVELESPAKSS
Sequence of UniProt P08637 (P08637 17-208 F176V): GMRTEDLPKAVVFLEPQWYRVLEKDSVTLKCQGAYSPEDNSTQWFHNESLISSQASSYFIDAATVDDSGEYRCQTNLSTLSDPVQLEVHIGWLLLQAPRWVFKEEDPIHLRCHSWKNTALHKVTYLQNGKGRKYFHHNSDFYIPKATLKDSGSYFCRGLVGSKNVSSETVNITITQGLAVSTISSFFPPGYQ

For Campath A231K (antibody), the Fold WT in experiment [1] came out at 0.52 fold; in experiment [2], 0.58 fold; in experiment [3], 0.5 fold; in experiment [4], 0.58 fold; in experiment [5], 0.41 fold; in experiment [6], 0.62 fold.

For the substance Campath D221K (antibody), the Fold WT in experiment [1] was determined as 5.66 fold; in experiment [2], 65.6 fold; in experiment [3] it was 4.53 fold; in experiment [4], 17.8 fold; in experiment [5], 3.5 fold; in experiment [6], 4.32 fold.

With Campath E233A (antibody), the Fold WT in experiment [1] came out at 0.93 fold; in experiment [2] it was 0.46 fold; in experiment [3], 0.1 fold; in experiment [4] it was 0.71 fold; in experiment [5], 0.6 fold; in experiment [6], 1.23 fold.

As to Campath E233F (antibody), the Fold WT in experiment [1] came out at 0.9 fold; in experiment [2] it was 0.58 fold; in experiment [3] it was 0.23 fold; in experiment [4] it was 0.84 fold; in experiment [5] it was 0.73 fold; in experiment [6], 0.64 fold.

For the substance Campath E233G (antibody), the Fold WT came out at 2.09 fold in experiment [1]; 1.21 fold in experiment [2]; 0.36 fold in experiment [3]; 0.74 fold in experiment [4]; 0.94 fold in experiment [5]; 1.21 fold in experiment [6].

Campath E233H (antibody): the Fold WT in experiment [1] was determined as 0.99 fold; in experiment [2] it was 0.32 fold; in experiment [3], 0.17 fold; in experiment [4] it was 0.78 fold; in experiment [5], 0.58 fold; in experiment [6], 0.74 fold.

Turning to Campath E233I (antibody), the Fold WT was found to be 0.95 fold in experiment [1]; 0.88 fold in experiment [2]; 0.3 fold in experiment [3]; 1.8 fold in experiment [4]; 1.69 fold in experiment [5]; 1.09 fold in experiment [6].

Consider Campath E233L (antibody), for which the Fold WT came to 0.6 fold in experiment [1]; 0.52 fold in experiment [2]; 0.53 fold in experiment [3]; 0.54 fold in experiment [4]; 0.26 fold in experiment [5]; 0.55 fold in experiment [6].

In the case of Campath E233M (antibody), the Fold WT in experiment [1] was determined as 1.13 fold; in experiment [2] it was 0.7 fold; in experiment [3], 0.29 fold; in experiment [4], 0.85 fold; in experiment [5], 0.49 fold; in experiment [6], 0.67 fold.

Take Campath E233N (antibody): the Fold WT in experiment [1] was found to be 0.74 fold; in experiment [2], 0.48 fold; in experiment [3], 0.16 fold; in experiment [4], 0.46 fold; in experiment [5] it was 0.34 fold; in experiment [6] it was 0.5 fold.

For the substance Campath E233Q (antibody), the Fold WT in experiment [1] worked out at 0.61 fold; in experiment [2] it was 0.51 fold; in experiment [3], 0.19 fold; in experiment [4] it was 0.39 fold; in experiment [5] it was 0.27 fold; in experiment [6], 0.52 fold.

Turning to Campath E233R (antibody), the Fold WT was found to be 1.05 fold in experiment [1]; 0.35 fold in experiment [2]; 0.14 fold in experiment [3]; 0.6 fold in experiment [4]; 0.36 fold in experiment [5]; 0.75 fold in experiment [6].

On to Campath E233S (antibody), for which the Fold WT in experiment [1] turned out to be 1.1 fold; in experiment [2], 0.36 fold; in experiment [3], 0.17 fold; in experiment [4], 0.37 fold; in experiment [5] it was 0.31 fold; in experiment [6] it was 0.62 fold.

As for Campath E233T (antibody), the Fold WT amounted to 1.19 fold in experiment [1]; 0.42 fold in experiment [2]; 0.15 fold in experiment [3]; 0.83 fold in experiment [4]; 0.78 fold in experiment [5]; 1.28 fold in experiment [6].

For Campath E233V (antibody), the Fold WT in experiment [1] worked out at 0.91 fold; in experiment [2], 0.5 fold; in experiment [3], 0.25 fold; in experiment [4], 0.61 fold; in experiment [5], 0.37 fold; in experiment [6] it was 0.71 fold.

Turning to Campath E233W (antibody), the Fold WT in experiment [1] came to 1.64 fold; in experiment [2], 0.35 fold; in experiment [3] it was 0.28 fold; in experiment [4] it was 0.7 fold; in experiment [5] it was 0.82 fold; in experiment [6], 0.86 fold.

As for Campath G236A (antibody), the Fold WT in experiment [1] was 1.75 fold; in experiment [2] it was 0.65 fold; in experiment [3] it was 0.48 fold; in experiment [4] it was 1.45 fold; in experiment [5] it was 1.05 fold; in experiment [6] it was 45 fold.

In the case of Campath G236D (antibody), the Fold WT was found to be 1.53 fold in experiment [1]; 0.15 fold in experiment [3]; 4.74 fold in experiment [4]; 3.77 fold in experiment [5]; 5.01 fold in experiment [6].

Take Campath G236M (antibody): the Fold WT in experiment [1] amounted to 1.6 fold; in experiment [2] it was 0.19 fold; in experiment [4], 0.4 fold; in experiment [5], 0.79 fold; in experiment [6], 0.34 fold.

As to Campath G236P (antibody), the Fold WT in experiment [1] came to 1.41 fold; in experiment [2], 0.1 fold; in experiment [3], 0.15 fold; in experiment [4], 0.15 fold; in experiment [5] it was 0.24 fold; in experiment [6] it was 0.11 fold.

With Campath G236S (antibody), the Fold WT in experiment [1] came out at 1.77 fold; in experiment [2], 5.77 fold; in experiment [3], 0.55 fold; in experiment [4] it was 3.68 fold; in experiment [5], 2.77 fold; in experiment [6] it was 22.7 fold.

On to Campath G236T (antibody), for which the Fold WT in experiment [1] amounted to 1.56 fold; in experiment [4] it was 0.48 fold; in experiment [5], 0.95 fold; in experiment [6], 1.89 fold.

For the substance Campath G236V (antibody), the Fold WT in experiment [1] came out at 1.35 fold; in experiment [2], 0.27 fold; in experiment [3], 0.14 fold; in experiment [4], 0.47 fold; in experiment [5], 0.82 fold; in experiment [6], 1.52 fold.

On to Campath G236W (antibody), for which the Fold WT stood at 1.52 fold in experiment [1]; 0.29 fold in experiment [2]; 0.78 fold in experiment [3]; 0.29 fold in experiment [4]; 0.7 fold in experiment [5]; 2.13 fold in experiment [6].

For Campath K222E (antibody), the Fold WT in experiment [1] was 0.64 fold; in experiment [2], 1.51 fold; in experiment [3], 1.77 fold; in experiment [4] it was 1.22 fold; in experiment [5] it was 1.04 fold; in experiment [6] it was 1.26 fold.

Regarding Campath K222Y (antibody), the Fold WT in experiment [1] worked out at 0.66 fold; in experiment [2], 0.34 fold; in experiment [3], 0.77 fold; in experiment [4], 0.34 fold; in experiment [5], 0.5 fold; in experiment [6] it was 0.48 fold.

With Campath L234A (antibody), the Fold WT in experiment [1] was 0.58 fold; in experiment [2] it was 0.35 fold; in experiment [3] it was 0.44 fold; in experiment [4], 0.62 fold; in experiment [5] it was 0.85 fold; in experiment [6] it was 0.8 fold.

Campath L234G (antibody): the Fold WT turned out to be 2.54 fold in experiment [1]; 2.17 fold in experiment [2]; 0.7 fold in experiment [3]; 3.48 fold in experiment [4]; 3.62 fold in experiment [5]; 3.26 fold in experiment [6].

In the case of Campath L234K (antibody), the Fold WT in experiment [1] came to 0.62 fold; in experiment [2], 0.53 fold; in experiment [3] it was 0.43 fold; in experiment [4] it was 1.09 fold; in experiment [5], 1.42 fold; in experiment [6], 0.65 fold.

As to Campath L234M (antibody), the Fold WT in experiment [1] amounted to 0.55 fold; in experiment [2], 0.49 fold; in experiment [3], 0.64 fold; in experiment [4] it was 0.65 fold; in experiment [5] it was 0.9 fold; in experiment [6], 0.89 fold.

Consider Campath L234R (antibody), for which the Fold WT came out at 1.19 fold in experiment [1]; 0.73 fold in experiment [2]; 0.38 fold in experiment [3]; 1.52 fold in experiment [4]; 1.49 fold in experiment [5]; 0.87 fold in experiment [6].

Consider Campath L235A (antibody), for which the Fold WT was 0.97 fold in experiment [1]; 0.41 fold in experiment [2]; 0.34 fold in experiment [3]; 0.78 fold in experiment [4]; 0.84 fold in experiment [5]; 0.62 fold in experiment [6].

Turning to Campath L235E (antibody), the Fold WT in experiment [1] is 0.78 fold; in experiment [2], 1.06 fold; in experiment [3], 0.34 fold; in experiment [4] it was 0.8 fold; in experiment [5], 0.83 fold; in experiment [6] it was 0.63 fold.

For Campath L235K (antibody), the Fold WT in experiment [1] was determined as 0.96 fold; in experiment [2], 0.63 fold; in experiment [3] it was 0.42 fold; in experiment [4] it was 1.34 fold; in experiment [5] it was 1.28 fold; in experiment [6], 0.56 fold.

On to Campath L235M (antibody), for which the Fold WT in experiment [1] was found to be 0.69 fold; in experiment [2], 0.46 fold; in experiment [3], 0.38 fold; in experiment [4], 0.64 fold; in experiment [5], 0.89 fold; in experiment [6], 0.79 fold.

Campath L235P (antibody): the Fold WT in experiment [1] stood at 0.86 fold; in experiment [2], 0.78 fold; in experiment [3], 0.13 fold; in experiment [4], 0.89 fold; in experiment [5], 1.16 fold; in experiment [6] it was 1.16 fold.

On to Campath P230E (antibody), for which the Fold WT came to 1.01 fold in experiment [1]; 2.07 fold in experiment [3]; 1.47 fold in experiment [4]; 2.34 fold in experiment [5]; 1.25 fold in experiment [6].

The record behind these values is WO2005092925A2.
